This passage reports Ka results from doi:10.1101/2025.03.05.641625.

Assay [1] deals with SARS-CoV-2 core RTC with nsp13.1 bound (RTC-nsp13.1) (SARS-CoV-2) (UniProt P0DTD1). Description: magnetic tweezers.
Assay [2] concerns the target SARS-CoV-2 core replication-transcription complex (nsp12-polymerase, nsp7, nsp8) (SARS-CoV-2) (UniProt P0DTD1). Description: magnetic tweezers.

Regarding “SARS-CoV-2 nsp13-helicase (wild type) (from UniProt P0DTD1 5325-5925) (enzyme)”, the values for the Ka in assay [1] and in assay [2] were 4.6e+08 M⁻¹ and 2.3e+08 M⁻¹, respectively.
